Laboratory results taken from patent publication US20040115741A1.

Target: HM1.24 antigen (human) (UniProt Q10589)
Test: flow cytometry on KPMM2 cells, control antibody

UniProt Q10589, sequence (Q10589 1-161 limits assumed): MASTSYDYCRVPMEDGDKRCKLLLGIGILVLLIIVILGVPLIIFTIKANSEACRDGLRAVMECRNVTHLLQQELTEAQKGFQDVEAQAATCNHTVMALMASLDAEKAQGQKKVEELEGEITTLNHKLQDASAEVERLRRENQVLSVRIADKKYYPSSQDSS

Geo Mean of fluorescence intensity: 17.3
Substance: control antibody human IgG1 (hIgG1), Human IgG1, Kappa (SIGMA Cat. No. I3889)
